{
  "source": "patent US20080220459A1",
  "biological_target": "NC4-antiserum (rabbit polyclonal antiserum against the collagen alpha1 (IX) NC4-peptide coupled to KLH)",
  "test": "inhibition ELISA: free NC4-peptide against binding of NC4-antiserum to solid-phase NC4-peptide",
  "data": [
    {"binder": "H-CGQDDLPGFDLISQFQ-NH2", "note": "[NC4-peptide NH2-…^64-CONH2]", "values": [
      {"measurement": "peptide concentration showing efficient inhibition of the binding", "value": 0.3, "unit": "ng/mL"}
    ]}
  ]
}
